This passage reports protein stability index results from the supplement of paper PMC10567573.

± gives the standard deviation.

A short description of this data set: protein stability index of a GFP-peptide fusion (GPS, HEK-293T) (PSI 1-6); higher = more stable.
The mark [1] stands for this setting: treatment: DMSO, c terminus: a fixed tail appended.
[2] abbreviates: treatment: MLN4924 1 uM, 8 h, c terminus: a fixed tail appended.
Setting [3] is: treatment: DMSO, c terminus: native.
[4] abbreviates: treatment: MLN4924 1 uM, 8 h, c terminus: native.
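Also: 24-mer peptide tiles fused after GFP, lentivirally expressed, FACS-sorted into six equal bins by GFP/DsRed ratio, decoded by Illumina sequencing, PSI is the read-weighted mean bin number.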

In turn, VRGPLQDSSWYEPSAELVQTRMAV [ZNF232] registered a protein stability index under setting [1] of 2.96 ± 0.17 and a protein stability index under setting [2] of 3.09 ± 0.24.
The corresponding values for VRNLFGLDPSSGAIHVLGPIDFEE [PCDHGC5] are 2.19 ± 0.14 and 2.33 ± 0.14.
The corresponding values for VRNNRSIIKQLKDVFERDWYSPYA [PLD5] are 2.41 ± 0.54 and 2.41 ± 0.21.
The corresponding values for VRSKYNDDIRKGIVLLEELLPKGS [FIS1] are 2.87 ± 0.04 and 2.84 ± 0.14.
For the sequence VRSLRGEEPVPRERDRDPCGGSGG [LURAP1L], the protein stability index by setting is: under setting [1], 5.34 ± 0.24; under setting [2], 5.35 ± 0.095.
The corresponding values for VRVNDGGGSHPSRPNSRHTPSFSG [VDR] are 3.72 ± 0.14 and 3.86 ± 0.19.
For VRVNVLLSRYLIEPCGPGKSKLTY [DLC1], in that order: 3.25 ± 0.83 and 2.68 ± 0.38.
The corresponding values for VSATKAEAEKDGVKVPTTLAEYCI [UBE2R2] are 4.5 ± 0.33 and 4.5 ± 0.28.
The sequence VSFSTGAGGWSNHHFCVILLGFLP [BET1L] came in with a protein stability index under setting [1] of 2.82 ± 0.39 and a protein stability index under setting [2] of 2.8 ± 0.36.
As for VSMLGYPFILPDMVGGNAVPQRTA [MYORG], the protein stability index under setting [1] was found to be 2.25 ± 0.42 and the protein stability index under setting [2] is 2.54 ± 0.32.
The corresponding values for VSRRLSPRKVSTCTDHELENHSMY [TRIM9] are 3.7 ± 0.22 and 3.77 ± 0.19.
For the sequence VSSSEQLQSCQAEIIELRRTVNAL [KRT34], the protein stability index runs as follows: under setting [1], 3.02 ± 0.2; under setting [2], 2.77 ± 0.3.
The corresponding values for VSTNTAMIQTSKTEITELRRTLQG [KRT13] are 4.08 ± 0.3 and 4.06 ± 0.22.
VSVTYCSVSQDFPGSNLNLLTNNS [ETS2]: the protein stability index was 2.59 ± 0.39 under setting [1] and 2.32 ± 0.39 under setting [2].
For VSYQLADGGEPQSVQVDGQARTQK [TNXB], in that order: 5.184 ± 0.024 and 5.21 ± 0.1.
For VTCKDKKGYTPLHAAASNGQINVV [ANKRD44], in that order: 3.34 ± 0.12 and 3.24 ± 0.27.
The corresponding values for VTFAAMQAQQGRSSLVWLFSQLYL [MCOLN1] are 3.03 ± 0.67 and 2.75 ± 0.47.
For the sequence VTYMNMTAYNKGRLQSSFWIVDKQ [PLD5], the protein stability index is, setting by setting: under setting [1], 2.39 ± 0.6; under setting [2], 2.33 ± 0.39.
On to VVIFQREPESKNAPHSQGEYDVYS [PPP2R2C], for which the protein stability index came out at 2.5 ± 0.23 under setting [1] and 2.85 ± 0.27 under setting [2].
The corresponding values for VVKFVNFLLVNGFQTAIDIFEDRI [TRAF3IP2] are 2.33 ± 0.45 and 2.83 ± 0.59.
VVNHLSCDEARNHYGGVVSLIPLI [SPACA9]: the protein stability index came out at 2.2 ± 0.14 under setting [1] and 2.12 ± 0.24 under setting [2].
For VWVGVIRYLTFFHNYNILIATLRV [MCOLN1], in that order: 3.13 ± 0.1 and 2.86 ± 0.37.
The corresponding values for WAAKAPGASSREEPPEEPEQCPVI [SPDEF] are 5.28 ± 0.31 and 5.27 ± 0.2.
The corresponding values for WAVQGQNVLHGYPKDIYSSFGFPR [MMP1] are 2.39 ± 0.18 and 2.15 ± 0.057.
For WCGISTDMWRSENQNRAYVTLAAH [ZBED1], the protein stability index runs as follows: under setting [1], 2.37 ± 0.4; under setting [2], 2.07 ± 0.05.
The corresponding values for WSIFYFFKSFQYPLPWSECPVVRN [SLC6A17] are 2.41 ± 0.17 and 2.59 ± 0.47.
For YALQMEQLNGILLHLESELAQTRA [KRT18], in that order: 2.24 ± 0.18 and 2.43 ± 0.29.
Consider YDMSDTNSDPEVVNVDNLLAAAVV [C18orf25], for which the protein stability index was found to be 4.06 ± 0.35 under setting [1] and 4.02 ± 0.26 under setting [2].
The corresponding values for YEELRNSERAEVQRLEEQERRHRE [RSPH3] are 5.4 ± 0.25 and 5.38 ± 0.28.
For YEYDHWDAAIHGFRETEKSRWSEA [ALKBH7], in that order: 3.64 ± 0.38 and 3.73 ± 0.22.
The corresponding values for YEYTSCTTFSTTSGYMEGYYTFHF [FBXO3] are 3.37 ± 0.42 and 3.2 ± 0.31.
With YFLELTQSFIIPLERYVASLMPLQ [DENND6A], the protein stability index runs as follows: under setting [1], 2.56 ± 0.11; under setting [2], 3.15 ± 0.33.
The corresponding values for YGRSDVVVLCFSIANPNSLHHVKT [RHOBTB2] are 3.33 ± 0.47 and 2.69 ± 1.8.
Regarding YGTKKFMQELTEMLGFRPYRFYFY [SLC6A17], the protein stability index by setting is: under setting [1], 2.29 ± 0.95; under setting [2], 2.28 ± 0.48.
For YHCPGSPDHQVPYGHDYPRAAYQQ [TRAF3IP2], in that order: 3.13 ± 0.45 and 3.5 ± 0.28.
In the case of YHSQDRYEFSSHITRGEHRFHMS [IKZF1], the protein stability index reads like this: under setting [3], 2.85 ± 0.39; under setting [4], 2.86 ± 0.58.
Consider YIHSCPKMKYKGQYRPSDLLCPET [ATE1], for which the protein stability index reads like this: under setting [1], 2.06 ± 0.29; under setting [2], 2.47 ± 0.34.
Regarding YIRCQKEVGKSFERHKLKRQDADA [SMG5], the protein stability index is, setting by setting: under setting [1], 3.46 ± 0.53; under setting [2], 3.43 ± 0.23.
Turning to YKKAVGLKLKQEKKEAYLKLKQG [WDR88], the protein stability index reads like this: under setting [3], 2.81 ± 0.4; under setting [4], 3.13 ± 0.3.
In the case of YKSWLKNLAKEQLSRENIQSSLLE [PPEF2], the protein stability index under setting [1] came to 2.72 ± 0.24 and the protein stability index under setting [2] stood at 2.86 ± 0.13.
The corresponding values for YLLKFLLVGDSDVGKGEILESLQD [RAB40C] are 2.72 ± 0.38 and 2.45 ± 0.49.
In the case of YNVIIGWSIFYFFKSFQYPLPWSE [SLC6A17], the protein stability index under setting [2] came out at 3.32 ± 0.67.
On to YPENDWDTAAPVPQKDLEIFKNF [PRKX], for which the protein stability index was determined as 5.08 ± 0.33 under setting [3] and 5.33 ± 0.25 under setting [4].
YQLGEEALLKFREDEGFVREEEDR [KCNA4] registered a protein stability index under setting [1] of 4.51 ± 0.22 and a protein stability index under setting [2] of 4.85 ± 0.31.
For YQNHKITQLKIENNPFAKGFRGSD [TBX5], in that order: 2.96 ± 0.5 and 3.55 ± 0.61.
For YQPKRYALSPKTTITMAHLLAARE [FAM98B], in that order: 2.31 ± 0.091 and 2.6 ± 0.39.
The corresponding values for YQVHDYLRSKLCSLYENDCIFDKF [PPP2R2B] are 2.58 ± 0.71 and 2.27 ± 0.48.
The sequence YRFYFYMWKFVSPLCMAVLTTASI [SLC6A17] displayed a protein stability index under setting [2] of 4.42 ± 0.71.
YRGMLDTHHKLCTFILKNPPENSD [EIF5]: the protein stability index reads like this: under setting [1], 3.29 ± 0.2; under setting [2], 3.25 ± 0.18.
The corresponding values for YRRHVLGIVLQGPALCFAAAIFSL [TMEM175] are 2.93 ± 0.18 and 2.85 ± 0.39.
The corresponding values for YSDGADDTFAAYTREQLYQAIFHA [MCOLN1] are 2.54 ± 0.23 and 2.52 ± 0.37.
In the case of YSGPPSPHGTLRVCTISSTGPLQP [PKD2L1], the protein stability index is, setting by setting: under setting [1], 2.65 ± 0.57; under setting [2], 2.83 ± 0.3.
The corresponding values for YSIPEELEKGSFVGNISKDLGLAP [PCDHGA10] are 3.59 ± 0.4 and 3.7 ± 0.29.
The corresponding values for YVASHKIEKEEQEKKRKEEEERRR [ACBD3] are 3.2 ± 1.1 and 4.37 ± 0.73.
Consider YVEVKEGKTWKQICDKHWTAKNSR [LOXL2], for which the protein stability index is 2.62 ± 0.8 under setting [1] and 3.28 ± 0.61 under setting [2].
In the case of YYGFSESAESQGLDGAGLMGFVPH [ADAMTSL2], the protein stability index came to 3 ± 0.41 under setting [1] and 3 ± 0.47 under setting [2].
